# Patent US20250388623A1, “PEPTIDE INHIBITOR AND USE THEREOF” (CHENGDU BRILLIANT INSPIRATION BIOTHERAPEUTICS CO., LTD, priority 2022, published 2025)
# How the values were obtained:
# [1] = target: T1, binding of TSP-1 protein to CD36, a TSP-1 receptor protein (Homo sapiens, UniProt P07996); assay: ELISA: blocking of CD36 binding to TSP-1 protein; details: 100 μM polypeptide, 0.25 μg/mL Fc-tagged CD36, blocking of CD36 binding to TSP-1; for inhibition at 100 µM: 3 h, read-out: Blocking rate (Mean, %)
# T1 construct: purchased novoprotein (TSP-1); R&D Systems (Fc-tagged CD36) CU45 (TSP-1); 1955-CD-050 (CD36-Fc)
# T1 sequence (P07996 19-1170): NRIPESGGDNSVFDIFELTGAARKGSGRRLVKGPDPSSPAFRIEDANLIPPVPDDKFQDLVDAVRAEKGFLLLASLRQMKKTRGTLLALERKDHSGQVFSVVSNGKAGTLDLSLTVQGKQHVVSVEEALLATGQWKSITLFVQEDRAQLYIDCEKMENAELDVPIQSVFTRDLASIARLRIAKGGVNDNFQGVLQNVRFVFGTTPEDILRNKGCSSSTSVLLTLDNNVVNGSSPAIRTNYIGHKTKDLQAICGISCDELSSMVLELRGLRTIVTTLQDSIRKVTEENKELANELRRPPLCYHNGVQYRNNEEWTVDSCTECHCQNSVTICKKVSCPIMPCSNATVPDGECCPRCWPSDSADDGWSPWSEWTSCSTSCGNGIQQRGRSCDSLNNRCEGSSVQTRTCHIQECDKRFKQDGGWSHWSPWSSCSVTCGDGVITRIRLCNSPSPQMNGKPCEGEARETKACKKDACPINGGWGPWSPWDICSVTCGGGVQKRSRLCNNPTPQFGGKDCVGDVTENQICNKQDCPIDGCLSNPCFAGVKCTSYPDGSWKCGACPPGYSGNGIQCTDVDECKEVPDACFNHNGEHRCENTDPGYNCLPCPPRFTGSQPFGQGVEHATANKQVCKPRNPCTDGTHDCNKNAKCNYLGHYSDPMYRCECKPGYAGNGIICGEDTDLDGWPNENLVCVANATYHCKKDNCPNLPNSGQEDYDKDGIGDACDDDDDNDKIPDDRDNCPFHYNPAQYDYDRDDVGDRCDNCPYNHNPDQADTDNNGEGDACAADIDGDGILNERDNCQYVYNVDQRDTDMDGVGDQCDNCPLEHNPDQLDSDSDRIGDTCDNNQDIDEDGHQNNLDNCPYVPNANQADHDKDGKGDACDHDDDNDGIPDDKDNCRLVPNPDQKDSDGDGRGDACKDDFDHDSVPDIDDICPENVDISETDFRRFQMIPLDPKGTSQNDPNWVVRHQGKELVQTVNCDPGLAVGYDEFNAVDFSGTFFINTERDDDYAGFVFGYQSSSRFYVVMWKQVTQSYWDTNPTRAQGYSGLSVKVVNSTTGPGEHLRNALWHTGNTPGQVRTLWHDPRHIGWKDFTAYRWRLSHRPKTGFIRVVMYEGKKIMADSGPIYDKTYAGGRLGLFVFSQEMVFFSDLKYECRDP
# Procedure: ELISA assay was performed to detect the ability of the polypeptides to block the binding of TSP-1 protein to CD36, a TSP-1 receptor protein. TSP-1 protein (novoprotein, Catalog No. CU45) was diluted to 2 μg/mL using 100 mM carbonate buffer and added to sample wells (100 μL/well) of a 96-well ELISA plate (Thermo, Catalog No. 437111), and incubated overnight at 4° C.; after washing the plate twice using 1×PBST wash solution, 200 μL of 1.5% BSA (Sigma, Catalog No. B2064) was added to each well, and incubated at 37° C. for 2 h; after washing the plate 3 times using 1×PBST wash solution, the analytes were added (100 μL/well, 3 replicate wells; for the control group, 0.25 μg/mL of Fc-tagged CD36 protein (R&D Systems, Catalog No. 1955-CD-050); and for the polypeptide-treated groups, a mixture containing Fc-tagged CD36 protein and polypeptide at final concentrations of 0.25 μg/mL and 100 μM, respectively), and incubated at 37° C. for 3 h. After washing the plate 5 times using 1×PBST wash solution, a 1:500 dilution solution of FITC-labeled anti-Fc-tagged antibody (Beyotime, Catalog No. A0556) was added, and incubated for 1 h at 37° C.; after washing the plate 5 times using 1×PBST wash solution, a multifunctional ELISA instrument (TECAN, model: Infinite 200 Pro) was used to detect the intensity of FITC fluorescence signal in each sample well. The ability of the polypeptides to block CD36 binding to TSP-1 protein (Table 2-1) was assessed by calculating the ratio of the fluorescence signal from the polypeptide-treated groups to that of the control group, allowing for the determination of the blocking rate of the polypeptides in inhibiting CD36 binding to TSP-1 protein, i.e., (fluorescence signal of the control group-fluorescence signal of the polypeptide-treated group)/fluorescence signal of the control group×100%. Based on the blocking rate results obtained at the single concentration and on the polypeptide molecule properties, the preferred polypeptide molecules were assayed for concentration dependence (at 0 μM, 0.5 μM, 1 μM, 5 μM, 10 μM, and 100 μM), and IC50 values of the polypeptides for blocking CD36 binding to TSP-1 protein were determined to further assess the abilities of the preferred polypeptide molecules to block the binding of CD36 to TSP-1 (Table 2-2).
# active TGF-β = assay: Active TGF-β level in lung tissue, bleomycin (BLM) mouse lung fibrosis model; format: in vivo; details: single intratracheal dose 3 mg/kg on Day 7, lung 24 h later; BLM model group = 100.00
# Source text: This Example was to evaluate the inhibitory effect of polypeptides on active TGF-β level during the progression of fibrotic disease. In this Example, a mouse lung fibrosis model induced by bleomycin (BLM) was used. The BLM animal model offers advantages, including a close mimicry of the pathological features of the primary disease, ease of use, and good reproducibility. It is the most representative model for studying the mechanisms of fibrosis and is recommended for evaluating drug efficacy.
# In this Example, 6 to 8-week-old male C57/6J mice weighing 18-20 g were used as subjects for the study. The experimental animals were randomized into groups, 8 animals in each group, and the expressions of pro-fibrotic factors were detected at the endpoint of the experiment (Day 8) in this model. In this example, an aerosol intratracheal metered dosing applicator (Yuyan, model YAN30012) was utilized for intratracheal administration during the modeling and drug delivery processes. The dosing was performed as follows (An Official American Thoracic Society Workshop Report: Use of Animal Models for the Preclinical Assessment of Potential Therapies for Pulmonary Fibrosis, Am J Respir Cell Mol Biol Vol 56, Iss 5, pp 667-679, May 2017): The experimental animals were anesthetized with aerosolized isoflurane (RWD, lot no. 22041701) using a small animal anesthesia machine (RWD, model R500IE). Animals in the appropriate anesthetic state were positioned supine with heads facing up and bodies tilted on an operating platform (tilted at approximately) 60°, secured by their incisors. The practitioner gently lifted the tongue with tissue forceps in the right hand, pushing it outward and upward to open the animal's lower jaw. Holding the laryngoscope (Yuyan, model SR310-RW) in the left hand, the practitioner slid its anterior leaf-shaped blade along the midline of the tongue into the oral cavity until reaching the glottis, gently pressing the body and root of the tongue upward. The needle of the drug applicator was then inserted through the mouth into the glottis alongside the laryngoscope, and 50 μL of liquid was quickly injected. On the day of modeling (Day 1), the experimental animals were randomly assigned to groups and administered a 0.7 USP/kg dose of bleomycin solution (HanHui Pharmaceutical, Batch No. 20080511) via the tracheal route to induce the model. On Day 7, each peptide-treated group received a single intratracheal dose of 50 μL peptide drug (at a dosage of 3 mg/kg), while the model group was given an equal volume of solvent (saline, Kelong, Batch No. L221062501) as a control. Twenty-four hours after drug administration, the animals were dissected to collect lung tissue, which was ground in liquid nitrogen to extract total protein from the lung tissue. The active TGF-β content in the lung tissue of mice from each group was measured using the TGF-β ELISA kit (BOSTER, catalog number EK0515). The ratio of active TGF-β content between the peptide-treated group and the model group was calculated to evaluate the effect of the peptide on active TGF-β level.
# P-Smad2/3 = P-Smad2/3 content in lung tissue, BLM mouse fibrosis model; format: in vivo; details: single intratracheal dose 3 mg/kg on Day 7, lung 24 h later; BLM model group = 100.00
# Source text: This example aimed to evaluate the inhibitory effect of polypeptides on the TGF-β downstream signaling pathway during fibrosis progression. TGF-β intracellular signaling relies on the phosphorylation events of Smad family proteins. The increase in Smad2/3 phosphorylation levels is an important indicator that signal transduction has occurred in the TGF-β signaling pathway.
# In this example, 6- to 8-week-old male C57/6J mice weighing 18-20 g were used as subjects for the study. The experimental animals were randomized into groups, eight animals in each group. In this example, intratracheal administration was performed using an aerosol intratracheal metered dosing applicator during both the modeling and drug delivery processes, as described in Example 4. On the day of modeling (Day 1), the experimental animals were randomly assigned to groups and administered a 0.7 USP/kg dose of bleomycin solution (HanHui Pharmaceutical, Batch No. 20080511) via the tracheal route to induce the model. On Day 7, each peptide-treated group received a single intratracheal dose of peptide drug at a dosage of 3 mg/kg, while the BLM model group was given an equal volume of solvent (saline) as a control. Twenty-four hours after drug administration, the animals were dissected, and the lung tissues were collected and frozen in liquid nitrogen for future use. Total protein from the lung tissue was extracted after grinding the tissue in liquid nitrogen, and the total P-Smad2/3 content in the tissue was measured by using P-Smad2/3 ELISA kit (CST, Catalog No. 12001C). The ratio of the P-Smad2/3 content between the peptide-treated group and the model group was calculated to evaluate the effect of the peptide on TGFβ signaling.
Substance,"Blocking rate (Mean, %) [1] [%]",inhibition at 100 µM [1] [%],"active TGF-β content in lung tissue, ratio to model group, Mean(%) (active TGF-β)","P-Smad2/3 content in lung tissue, ratio to model group, Mean(%) (P-Smad2/3)"
Ac-Gln-Asp-Ala-Glu-Asp-Asn-Thr-Ala-NH2 (Ac-QDAEDNTA-NH2) [SEQ ID NO: 16],24.87,–,–,–
Ac-Gln-Asp-Ala-Glu-Asp-NH2 (Ac-QDAED-NH2) [SEQ ID NO: 02],16.39,–,–,–
Ac-Gln-Asp-Pro-Glu-Asp-NH2 (Ac-QDPED-NH2) [SEQ ID NO: 01],17.84,–,–,–
Ac-Ser-Gln-Asp-Ala-Glu-Asp-Asn-NH2 (Ac-SQDAEDN-NH2) [SEQ ID NO: 07],16.42,–,71.66,80.71
Ac-Ser-Gln-Asp-Ala-Glu-Asp-Asn-Thr-Val-NH2 (Ac-SQDAEDNTV-NH2) [SEQ ID NO: 18],18.79,–,–,–
"Ac-TQDAEDNT-NH2 [SEQ ID NO: 15, Ac-Thr-Gln-Asp-Ala-Glu-Asp-Asn-Thr-NH2]",–,30.6,–,–
Ac-Thr-Asn-Asp-Ala-Glu-Asp-Asn-NH2 (Ac-TNDAEDN-NH2) [SEQ ID NO: 08],16.70,–,80.31,83.02
Ac-Thr-Asn-Asp-Ala-Glu-Asp-Asn-Thr-Val-NH2 (Ac-TNDAEDNTV-NH2) [SEQ ID NO: 19],16.86,–,–,–
Ac-Thr-Gln-Asp-Ala-Glu-Asp-Asn-Thr-Val-NH2 (Ac-TQDAEDNTV-NH2) [SEQ ID NO: 17],29.16,–,71.36,74.12
Ac-Thr-Gln-Asp-Ala-Glu-Asp-Pro-NH2 (Ac-TQDAEDP-NH2) [SEQ ID NO: 13],16.56,–,–,–
Ac-Thr-Gln-Asp-Pro-Glu-Asp-Asn-Thr-Val-NH2 (Ac-TQDPEDNTV-NH2) [SEQ ID NO: 20],26.03,–,–,–
Ac-Thr-Gln-Asp-Pro-Glu-Asp-NH2 (Ac-TQDPED-NH2) [SEQ ID NO: 03],16.02,–,–,–
Ac-Thr-Gln-Asp-Ser-Glu-Asp-Asn-NH2 (Ac-TQDSEDN-NH2) [SEQ ID NO: 11],15.19,–,–,–
Ac-Thr-Gln-Asp-Ser-Glu-Asp-Asn-Thr-Val-NH2 (Ac-TQDSEDNTV-NH2) [SEQ ID NO: 21],15.63,–,–,–
Ac-Thr-Ser-Asp-Ala-Glu-Asp-Asn-NH2 (Ac-TSDAEDN-NH2) [SEQ ID NO: 10],14.54,–,–,–

# The next lines start with results.
"Blocking rate (Mean, %) [1] [%]",inhibition at 100 µM [1] [%],Substance,"active TGF-β content in lung tissue, ratio to model group, Mean(%) (active TGF-β)","P-Smad2/3 content in lung tissue, ratio to model group, Mean(%) (P-Smad2/3)"
–,22.8,"Ac-QDAEDNTAS-NH2 [SEQ ID NO: 23, Ac-Gln-Asp-Ala-Glu-Asp-Asn-Thr-Ala-Ser-NH2]",–,–
22.41,–,Ac-Ser-Gln-Asp-Ala-Glu-Asp-Asn-Thr-Val-Ser-Phe-Leu-Gln-NH2 (Ac-SQDAEDNTVSFLQ-NH2) [SEQ ID NO: 37],–,–
21.71,–,Ac-Ser-Gln-Asp-Ala-Glu-Asp-Asn-Thr-Val-Ser-Phe-NH2 (Ac-SQDAEDNTVSF-NH2) [SEQ ID NO: 28],–,–
–,30.2,"Ac-TQDAEDNTQD-NH2 [SEQ ID NO: 49, Ac-Thr-Gln-Asp-Ala-Glu-Asp-Asn-Thr-Gln-Asp-NH2]",82.64,91.98
–,29.7,"Ac-TQDPAEDN-NH2 [SEQ ID NO: 48, Ac-Thr-Gln-Asp-Pro-Ala-Glu-Asp-Asn-NH2]",82.97,80.57
21.58,–,Ac-Thr-Gln-Asp-Ala-Glu-Asp-Asn-Thr-Ala-Ser-His-Leu-NH2 (Ac-TQDAEDNTASHL-NH2) [SEQ ID NO: 35],–,–
18.44,–,Ac-Thr-Gln-Asp-Ala-Glu-Asp-Asn-Thr-Ala-Ser-Phe-NH2 (Ac-TQDAEDNTASF-NH2) [SEQ ID NO: 31],83.22,90.02
20.44,–,Ac-Thr-Gln-Asp-Ala-Glu-Asp-Asn-Thr-Ala-Ser-Trp-NH2 (Ac-TQDAEDNTASW-NH2) [SEQ ID NO: 34],–,–
21.45,–,Ac-Thr-Gln-Asp-Ala-Glu-Asp-Asn-Thr-Ala-Ser-Tyr-NH2 (Ac-TQDAEDNTASY-NH2) [SEQ ID NO: 32],–,–
25.53,–,Ac-Thr-Gln-Asp-Ala-Glu-Asp-Asn-Thr-Val-Ser-Phe-NH2 (Ac-TQDAEDNTVSF-NH2) [SEQ ID NO: 27],89.89,88.69
22.29,–,Ac-Thr-Gln-Asp-Pro-Glu-Asp-Asn-Thr-Val-Ser-Phe-Leu-Gln-NH2 (Ac-TQDPEDNTVSFLQ-NH2) [SEQ ID NO: 39],–,–
22.45,–,Ac-Thr-Gln-Asp-Pro-Glu-Asp-Asn-Thr-Val-Ser-Phe-NH2 (Ac-TQDPEDNTVSF-NH2) [SEQ ID NO: 30],–,–
25.05,–,Ac-Thr-Glu-Asp-Ala-Glu-Asp-Asn-Thr-Val-Ser-Phe-NH2 (Ac-TEDAEDNTVSF-NH2) [SEQ ID NO: 29],–,–
20.22,–,Ac-Thr-Ser-Asp-Ala-Glu-Asp-Asn-Thr-Val-Ser-Phe-Leu-Gln-NH2 (Ac-TSDAEDNTVSFLQ-NH2) [SEQ ID NO: 38],–,–
